Experiment [1] has as its target T1, SNAP-25 peptide comprising amino acids 134-197 of SEQ ID NO: 5 (human). Description: SPR (BIAcore 3000), peptide amine-coupled to CM5 chip, antibody as analyte, 1:1 fit. A general note: SPR reads the build-up and loss of mass on a sensor chip optically.
Experiment [2] deals with T1, SNAP-25 peptide comprising amino acids …. Description: SPR, comparison of the KD values of Table 9.
Experiment [3] deals with SNAP-25 peptide comprising amino acids 134-197 of SEQ ID NO: 5 (human). Description: SPR (BIAcore 3000), peptide amine-coupled to CM5 chip, antibody as analyte, 1:1 fit. This is another data set of the same source.
For experiment [4], the target named is T1, SNAP-25 peptide comprising amino acids …. In words: SPR (BIAcore 3000), peptide amine-coupled to CM5 chip, antibody as analyte, 1:1 fit, second independent run on another chip.
For experiment [5] the target is unchanged. In words: SPR, comparison of the Kd values of Table 9.
The target is the same in experiment [6]. In words: SPR (BIAcore 3000), peptide amine-coupled to CM5 chip, antibody as analyte, 1:1 fit, first of two runs.

As usually defined, the Kd is the free concentration of one partner at which half of the binding sites on the other are occupied at equilibrium, for simple one-to-one binding. Read a high Kd as weaker binding. What is called koff is a measure of how fast the partners let go of each other. Low readings indicate a long-lived complex, high ones a short-lived complex. What is called kon is the second-order rate constant of association. A lower kon goes with slower complex formation.

Positions count from the first letter of the chain named.

B1: α-SNAP-25 monoclonal antibody 3C1A5 (antibody, V domains shown)
VH: VKLQESGAELVKPGASVKISCKASGYTFTDHSIHWVKQKPGQGLEWIGYLFPGNGNFEYNEKFKGKATLTADKSSSTVYMYLNSLTSEDSAVYFCKRMGYWGQGTTVTVSS
VL: DIKMTQSPSSMYASLGERVTITCKASQDIKSYLSWYQQKPWKSPKTLIYYATSLADGVPSRFSGSGSGQDYSLTISSLESDDTATYYCLQHGESPFTFGSGTKLEIKR
Turning to B1, in experiment [1], the Kd was 1.33 nM, the koff was 0.000288 s⁻¹ and the kon amounted to 217000 M⁻¹ s⁻¹.

B2: α-SNAP-25 monoclonal antibody 1D3B8 (antibody, V domains shown)
VH: VKLQESGAELVKPGASVKISCKASGYIFTDHALHWVRQKPEQGLEWIGYIFPGNGNIEYNEKFKGKATLTADKSSSTAYMQLNSLTSGDSAMYFCKKMDYWGQGTTVTVSS
VL: DVLMTQTPLSLPVSLGDQASISCRSSQSIVHSNGNTYLEWYLQKPGQSPKLLIYKVSNRFSGVPDRFSGSGSGTDFTLKISRVEAEDLGVYYCFQGSHVPPTFGAGTKLELKR
Take B2: in experiment [1], the Kd stood at 0.05 nM, the koff amounted to 5.78e-05 s⁻¹ and the kon was found to be 1.06e+06 M⁻¹ s⁻¹. In addition, in experiment [2], the fold difference of equilibrium disassociation constant against MC-6050 and MC-6053 came out at 10 fold.

B3: α-SNAP-25 monoclonal antibody 2C9B10 (antibody, V domains shown)
VH: B1 VH with V78A, Y81H, R97K, G99D
VL: DIQMTQSPASLSASVGETVTITCRTTENIYSYFVWSQQRQGKSPQLRVYNAKSLAEGVPSSFNVSVSGTQFSLKINSLQPEDFGTYHCQHHYGTPYTFGGGTRLEIRR
In experiment [3], B3 had a Kd of 27.1 nM, a koff of 0.000311 s⁻¹ and a kon of 11500 M⁻¹ s⁻¹.

B4: α-SNAP-25 monoclonal antibody 2E2A6 (antibody)
chain 1: QVQLQQSDAELVKPGASVKISCRASGYTFTDHSIHWVKQQPGQGLEWIGYIFPGNGNIEYNDKFKGKATLTADKSSGTAYMQLNSLTSEDSAVYFCKRMGYWGQGTSVTVSS
chain 2: DVLMTQTPLTLSVTIGQPASISCKSSQSLLYTNGKTYLTWLFQRPGQSPKRLIYLVSELDSGVPDRFSGSGSGTDFTLEITRVEAEDLGVYYCLQSAHFPFTFGSGTKLEIKR
In the case of B4, in experiment [4], the Kd is 0.405 nM, the koff is 6.74e-05 s⁻¹ and the kon was determined as 166000 M⁻¹ s⁻¹. Besides, the fold slower off rate against MC-6050 and MC-6053 in experiment [5] is over 1 fold. In experiment [6], the Kd came out at 0.09 nM, the koff turned out to be 0.000153 s⁻¹ and the kon was determined as 1.7e+06 M⁻¹ s⁻¹.

The record behind these values is patent US20120122128A1.
